Residue numbers refer to the chain shown, from its start.

A word on the EC50: it is the concentration needed to bring the measured effect to its halfway point. A lower EC50 goes with a more potent agent. What is called Kd is the constant that tells how readily two partners part at equilibrium. As a reminder, the EC50 (read off the curve) is the concentration at which the effect is half-maximal.

In experiment [1] the target is T1, human FZD5 expressed on transfected HEK293 cells (human, UniProt Q13467 27-585).
T1 construct: See note of m11
Description: FACS titration (MFI) on HEK293 cells transfected with full-length FZD and GFP. Here is the method:
(§1) HEK293 cells were co-transfected with a plasmid DNA expressing full-length FZD1, 2, 5, 7 or 8 along with another plasmid expressing the reporter gene GFP used as a transfection marker. Fugene 6 (Roche) was used as transfection reagent according to the manufacturer directions. Transfected cells were incubated twenty-four to forty-eight hours at 37° C. and 5% CO₂. The anti-FZD mAbs were then diluted in a final volume of 50 μl starting with a concentration of 20 μg/ml and serially diluted 4-fold for a total of 8 dilutions. […] The cells were washed and bound anti-Fzd antibodies were detected with a secondary anti-human antibody conjugated to a fluorescent chromophore. Labeled cells were then detected and counted by FACS. The FACS data generated were expressed in Mean Fluorescence Intensity (MFI) units. GraphPad Prism software was used to graph and analyze the data. MFIs were plotted as a function of Ab concentration to establish dose-response curves. A non-linear regression was applied to the numbers to fit the curve and calculate EC50s.
(§2) The binding profiles for the mAbs 18R5 and 44R24 were determined and compared. 44R24 bound Fzd5 and Fzd8 with good affinity.

For experiment [2], the target named is T2, FZD8-Fc variant Mut2 (substitution at position 75 in the cleft) (human, UniProt Q9H461 28-157).
T2 construct: also called FZD8-Mut2; not shown: human IgG1 Fc
T2 chain: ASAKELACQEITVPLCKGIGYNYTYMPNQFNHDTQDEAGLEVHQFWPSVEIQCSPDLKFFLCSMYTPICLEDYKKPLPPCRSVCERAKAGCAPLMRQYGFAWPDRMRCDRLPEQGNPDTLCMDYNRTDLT
The experiment can be described thus: phage ELISA on FZD8-Fc Mut2. A general note: An ELISA detects its analyte on a solid surface through an enzyme-linked reagent.

Experiment [3] deals with T3, human FZD1 expressed on transfected HEK293 cells (human, UniProt Q9UP38 70-647). The experiment can be described thus: FACS titration (MFI) on HEK293 cells transfected with full-length FZD and GFP. The protocol: as §1, §2
T3 sequence (Q9UP38 70-647 limits assumed): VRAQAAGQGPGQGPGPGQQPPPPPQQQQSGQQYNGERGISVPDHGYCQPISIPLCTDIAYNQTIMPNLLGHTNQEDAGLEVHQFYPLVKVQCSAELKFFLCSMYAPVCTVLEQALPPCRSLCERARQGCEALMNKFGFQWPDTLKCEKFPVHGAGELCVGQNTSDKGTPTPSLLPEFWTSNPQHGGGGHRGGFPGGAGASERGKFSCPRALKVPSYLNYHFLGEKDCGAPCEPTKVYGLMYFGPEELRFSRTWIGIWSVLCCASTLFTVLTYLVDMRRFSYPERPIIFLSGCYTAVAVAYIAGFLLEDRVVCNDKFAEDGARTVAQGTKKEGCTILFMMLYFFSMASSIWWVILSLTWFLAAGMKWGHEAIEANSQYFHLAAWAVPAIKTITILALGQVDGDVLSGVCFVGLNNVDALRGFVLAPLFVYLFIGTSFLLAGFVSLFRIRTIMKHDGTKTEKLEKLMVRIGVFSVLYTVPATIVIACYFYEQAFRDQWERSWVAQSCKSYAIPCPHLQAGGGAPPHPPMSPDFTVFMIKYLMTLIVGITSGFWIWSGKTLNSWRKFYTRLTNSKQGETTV
In experiment [4] the target is T4, human FZD2 expressed on transfected HEK293 cells (human, UniProt Q14332 24-565).
T4 construct: See note of m11
T4 sequence (Q14332 24-565 limits assumed): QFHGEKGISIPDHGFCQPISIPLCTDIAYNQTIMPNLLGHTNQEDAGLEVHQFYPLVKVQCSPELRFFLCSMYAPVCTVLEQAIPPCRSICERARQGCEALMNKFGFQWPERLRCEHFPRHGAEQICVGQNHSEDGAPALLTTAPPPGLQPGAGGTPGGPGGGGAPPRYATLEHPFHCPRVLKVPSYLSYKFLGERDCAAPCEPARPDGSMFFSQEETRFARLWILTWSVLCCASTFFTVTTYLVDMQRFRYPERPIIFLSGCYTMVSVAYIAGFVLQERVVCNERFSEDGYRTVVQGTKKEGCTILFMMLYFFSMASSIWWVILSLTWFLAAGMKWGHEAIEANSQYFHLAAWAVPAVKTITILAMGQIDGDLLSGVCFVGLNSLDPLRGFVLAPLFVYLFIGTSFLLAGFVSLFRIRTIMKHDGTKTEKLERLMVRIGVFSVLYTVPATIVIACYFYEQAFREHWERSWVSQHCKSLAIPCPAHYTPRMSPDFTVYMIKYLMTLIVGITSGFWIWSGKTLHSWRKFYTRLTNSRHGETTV
The experiment is described as above. Here is the method:
as §1, §2

Experiment [5] has as its target T5, human FZD7 expressed on transfected HEK293 cells (human, UniProt O75084 33-574).
T5 construct: See note of m11
The description is as above. Here is the method: as §1, §2

For experiment [6], the target named is T6, recombinant FZD1 Fc protein (Biacore) (Homo sapiens (Human), UniProt Q9UP38 70-321, limits assumed).
T6 construct: also called Fzd Fc; not shown: Fc part, not described
T6 sequence (Q9UP38 70-321 limits assumed): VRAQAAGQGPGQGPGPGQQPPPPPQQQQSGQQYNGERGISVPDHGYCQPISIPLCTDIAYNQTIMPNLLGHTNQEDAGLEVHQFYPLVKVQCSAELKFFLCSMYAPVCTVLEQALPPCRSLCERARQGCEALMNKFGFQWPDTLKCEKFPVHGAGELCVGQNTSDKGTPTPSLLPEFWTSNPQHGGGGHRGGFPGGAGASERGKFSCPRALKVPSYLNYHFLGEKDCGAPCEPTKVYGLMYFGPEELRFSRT
The experiment can be described thus: SPR, Biacore 2000; Fzd Fc immobilized on CM5 chip, IgG 100 to 0.78 nM in solution. Here is the method: (§3) The KDs of 18R8 and 18R5 antibodies were determined using the Biacore 2000 system from Biacore Lifescience (GE Healthcare). Specifically, purified anti-Fzd7 antibodies were serially diluted in 2-fold increments from 100 to 0.78 nM in HBS-P (0.01 M HEPES pH 7.4, 0.15 M NaCl, 0.005% v/v Surfactant P20). Each dilution was tested against recombinant Fzd Fc proteins immobilized onto a CM5 Biacore chip. The association and dissociation rates were measured and KD values determined using the Biaevaluation software program (Table 5, below).
(In SPR one partner is held on a chip, and binding of the other changes the refractive index at the surface.)

Experiment [7] deals with T7, recombinant FZD2 Fc protein (Biacore) (Homo sapiens (Human), UniProt Q14332 24-250, limits assumed).
T7 construct: also called Fzd Fc; not shown: Fc part, not described
T7 sequence (Q14332 24-250 limits assumed): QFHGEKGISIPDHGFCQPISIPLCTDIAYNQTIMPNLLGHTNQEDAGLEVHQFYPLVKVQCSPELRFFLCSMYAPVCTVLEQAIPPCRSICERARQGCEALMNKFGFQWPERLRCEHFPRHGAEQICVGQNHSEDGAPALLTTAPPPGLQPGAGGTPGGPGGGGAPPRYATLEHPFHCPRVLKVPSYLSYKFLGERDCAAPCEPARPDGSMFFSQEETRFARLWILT
The description is as above. Here is the method: as §3

The target of experiment [8] is T8, FZD5-Fc (Homo sapiens (Human), UniProt Q13467 27-233, limits assumed).
T8 construct: also called recombinant FZD5 Fc protein; not shown: Fc part, not described
T8 sequence: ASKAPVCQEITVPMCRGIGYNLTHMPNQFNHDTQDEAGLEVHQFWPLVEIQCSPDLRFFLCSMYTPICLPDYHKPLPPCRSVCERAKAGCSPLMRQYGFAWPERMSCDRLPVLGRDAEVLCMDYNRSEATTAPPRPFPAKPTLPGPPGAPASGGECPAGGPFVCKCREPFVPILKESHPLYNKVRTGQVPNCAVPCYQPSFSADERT
The experiment is described as above. The protocol:
as §3

The target in experiment [9] is T9, recombinant FZD7 Fc protein (Biacore) (Homo sapiens (Human), UniProt O75084 33-255, limits assumed).
T9 construct: also called Fzd Fc; not shown: Fc part, not described
Described as above. The protocol: as §3

Experiment [10] has as its target T3, human FZD1 expressed on transfected …. Description: flow cytometry (MFI), antibody titration on HEK293 cells overexpressing the FZD. Here is the method:
(§4) To measure antibody binding to FZD by flow cytometry HEK293 cells were co-transfected with FZD expression vectors and the transfection marker GFP. Twenty-four to forty-eight hours post-transfection, cells were collected in suspension and incubated on ice with anti-FZD antibodies (10 μg/ml unless otherwise indicated) or control IgG to detect background antibody binding. The cells were washed and primary antibodies detected with Fc domain-specific secondary antibodies conjugated to a fluorescent chromophore (e.g. phycoerythrin conjugated anti-human IgG). Labeled cells were then analyzed by flow cytometry to identify anti-FZD antibodies that specifically recognize cell surface expression of FZD protein. Monoclonal antibodies 18R5 and 18R8 recognized FZD on transfected cells. As shown in FIG. 1 and FIG. 2, both 18R8 and 18R5 bind to multiple FZD including FZD1, FZD2, FZD5, FZD7, and FZD8. To examine the relative ability of 18R8 and 18R5 to bind to each FZD protein, titration analysis was conducted wherein the amount of antibody in the binding reaction was varied (FIG. 2).

The target in experiment [11] is T4, human FZD2 expressed on transfected …. The experiment is described as above. The protocol:
as §4

Experiment [12] addresses T10, soluble FZD8-Fc containing the Fri domain (amino acids 1-157 of FZD8 linked in-frame to human IgG1 Fc) (human, UniProt Q9H461 28-157).
T10 construct: also called wild-type FZD8; not shown: human IgG1 Fc
T10 sequence: T2 chain with S48L
Description: phage ELISA on FZD8-Fc.

B1: 44R24 anti-FZD IgG antibody (antibody, V domains shown)
VH: EVQLVESGGGLVQPGGSLRLSCAASGFTFSSYYITWVRQAPGKGLEWVSTISYSSSNTYYADSVKGRFTISRDNSKNTLYLQMNSLRAEDTAVYYCARSIVFDYWGQGTLVTVSS
VL: DIELTQPPSVSVAPGQTARISCSGDALGNRYVYWYQQKPGQAPVLVIPSGIPERFSGSNSGNTATLTISGTQAEDEADYYCGSWDTRPYPKYVFGGGTKLTVLG
notes: also called anti-FZD5/8 44R24
For B1, in [1], the EC50 was 1.89 nM.
As to DVWWLGSTWLKR (marked with an arrow) [clone 28], the binding result in [2] is on record as “no binding”.

B2: 18R5 IgG antibody (human IgG2, lambda) (antibody, V domains shown)
VH: EVQLVESGGGLVQPGGSLRLSCAASGFTFSHYTLSWVRQAPGKGLEWVSVISGDGSYTYYADSVKGRFTISSDNSKNTLYLQMNSLRAEDTAVYYCARNFIKYVFANWGQGTLVTVSS
VL: DIELTQPPSVSVAPGQTARISCSGDNIGSFYVHWYQQKPGQAPVLVIYDKSNRPSGIPERFSGSNSGNTATLTISGTQAEDEADYYCQSYANTLSLVFGGGTKLTVLG
notes: also called OMP-18R5; 18R5 IgG2 antibody
On to B2, for which the EC50 was determined as 0.41 nM in [3], 0.62 nM in [4], 1.1 nM in [1] and 0.58 nM in experiment [5]. Further, the Kd turned out to be 4.6 nM in experiment [6], 3.3 nM in experiment [7], 1.9 nM in experiment [8] and 1.8 nM in experiment [9]. Further, the concentration giving a half-maximal response (EC50 (read off the curve)) in experiment [10] and in experiment [11] was around 0.2 µg/mL in each case.

B3: FZD binding peptide clone #2 (DTLSALIERGLM) (peptide)
peptide: DTLSALIERGLM
notes: Linear 12-mer from the Ph.D. phage display peptide library
B3: the binding result is “binds” in experiment [12] and “no binding” in experiment [2].
